# B1: Nb4 (VHH)
# VHH: AVQLQASGGGFVQPGGSLRLSCAASGWAETFGHMGWFRQAPGKEREFVSAIDWWDTVHYYADSVKGRFTISRDNSKNTVYLQMNSLRAEDTATYYCAYWDMDYLQNSIPVDYWGQGTQVTVSS
# notes: also called Nb4 monomer; monomeric Nb4
# Biological target: T1, SARS-CoV-2 Omicron BA.1 Spike receptor-binding domain (SARS-CoV-2 Omicron BA.1, strain, biotin on the Avi tag (for phage screening and BLI); not biotinylated for crystallisation)
# T1 construct: Spike glycoprotein of SARS-CoV-2, Omicron BA.1, RBD1 (319-514) domain; also called RBD1; BA.1 RBD; not shown: Avi-tag, C-terminal, kept
# Experiment: BLI; biotinylated monovalent, […]; 25°C; 20 mM HEPES pH 7.4, 150 mM NaCl, 10 mg/mL BSA
# Conditions: both partners purified
binder,measurement,value
B1,Kd,~8 nM

# Reference: article PMC10600506, “A potent and broad‐spectrum neutralizing nanobody for SARS‐CoV‐2 viruses, including all major Omicron strains” (MedComm, 2023)
